This note sets out measurements from patent US10724034B2, “Genetic encoding of chemical post-translational modification for phage-displayed libraries” (THE GOVERNORS OF THE UNIVERSITY OF ALBERTA, priority 2014, dated 2020).

Ends that are not written are not given here. Gal = galactose Where only a bound is given, the exact number is not on record here.

Assay [1] deals with T1, human Galectin-3 protein (human, UniProt P17931 2-250, limits assumed).
T1 construct: also called Gal3
As to the kind of experiment: ELISA-like competition with HRP-Lac on immobilised Galectin-3; reference MeGal. In short, it runs like this: (§1)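 Polystyrene 96-well plates were coated at 10 μg/ml with the carbohydrate recognition domain of human Galectin-3 for an ELISA-like competition assay. A lactose-conjugated horseradish peroxidase probe was bound, and test molecules competed with it, with competition read as lower colour development. Values give the fold difference in inhibition relative to a known Galectin-3 reference ligand run in the same assay.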
(In general: An ELISA detects its analyte on a solid surface through an enzyme-linked reagent.)

For assay [2], the target named is T1, human Galectin-3 protein. As to the kind of experiment: competition ELISA: HRP-Lactose binding to plate-coated Galectin-3 [lower right panel]. In short, it runs like this: (§2)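 In an ELISA-like format, polystyrene 96-well plates carried the carbohydrate recognition domain of human Galectin-3, coated at 10 μg/ml. Test molecules competed with a lactose-conjugated horseradish peroxidase probe, measured as reduced colour development, and the half-maximal inhibitory concentration was derived from the resulting curves.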

Assay [3] addresses T1, human Galectin-3 protein. The experiment in a line: competition ELISA: HRP-Lactose binding to plate-coated Galectin-3 [lower left panel]. In short, it runs like this:
as §2

Assay [4] deals with T1, human Galectin-3 protein. As to the kind of experiment: competition ELISA: HRP-Lactose binding to plate-coated Galectin-3 [upper right panel]. In short, it runs like this: as §2
The target in assay [5] is T1, human Galectin-3 protein. As to the kind of experiment: ELISA-like competition with HRP-Lac on immobilised Galectin-3; reference lactose. In short, it runs like this: as §1
For assay [6], the target named is T1, human Galectin-3 protein. The experiment in a line: ELISA-like competition with HRP-Lac on immobilised Galectin-3; reference Lacto-N-Tetraose. In a few lines:
as §1

The target in assay [7] is T1, human Galectin-3 protein. As to the kind of experiment: ELISA-like competition: inhibition of soluble HRP-Lactose binding to immobilised Galectin-3. In a few lines:
as §2

T1 sequence (P17931 2-250 limits assumed): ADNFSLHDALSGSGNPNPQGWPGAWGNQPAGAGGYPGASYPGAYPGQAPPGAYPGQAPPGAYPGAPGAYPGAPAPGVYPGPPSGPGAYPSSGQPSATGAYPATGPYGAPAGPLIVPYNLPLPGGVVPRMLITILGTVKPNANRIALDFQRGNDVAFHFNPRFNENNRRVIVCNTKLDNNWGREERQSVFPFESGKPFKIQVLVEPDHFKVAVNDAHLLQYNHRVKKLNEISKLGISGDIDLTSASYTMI

B1: Gal-PAPT (galactose-modified glycopeptide) (peptide)
peptide: Gal-PAPT
modifications: also: exact galactose derivative not given here
notes: Synthetic glycan-peptide conjugate; also called glycopeptide Gal-PAPT
A word on the EC50: it is the concentration needed to bring the measured effect to its halfway point. As for B1, the “fold better inhibition than MeGal” value in assay [1] was over 1500 fold. Also, the “IC50 (read off the curve)” value in assay [2], in assay [3] and in assay [4] was about 20 µM throughout. In assay [5], the “fold better inhibition than Lactose” value was determined as 30 fold. In assay [6], the “fold better inhibition than LNT” value was 5 fold. For the same molecule, in assay [7], the concentration giving a half-maximal response (EC50) worked out at 14 µM.
